{
  "source": "patent US20260217863",
  "proteins": {"B1": {"name": "Ribonuclease A (Type II-A) from bovine pancreas (protein)", "chain": "KETAAAKFERQHMDSSTSAASSSNYCNQMMKSRNLTKDRCKPVNTFVHESLADVQAVCSQKNVACKNGQTNCYQSYSTMSITDCRETGSSKYPNCAYKTTQANKHIIVACEGNPYVPVHFDASV"}},
  "key": {"[1]": {"target": "T1, Fv-1, expressed soluble Fv antibody of clone 5 (His-tag-TdTomato-VH)", "T1 chain": "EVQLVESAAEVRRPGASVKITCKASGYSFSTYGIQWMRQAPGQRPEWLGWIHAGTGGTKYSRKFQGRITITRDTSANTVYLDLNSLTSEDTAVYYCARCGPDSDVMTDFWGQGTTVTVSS"}, "[2]": {"target": "Fv-3, expressed soluble Fv antibody of clone 39 (His-tag-TdTomato-VH)"}, "[3]": {"target": "T2, Fv-2, expressed soluble Fv antibody of clone 23 (His-tag-TdTomato-VH)", "T2 chain": "T1 chain with C99Y, D102V, S103G, D104R, M106K, T107R, F109D"}},
  "note": "Residue numbers refer to the chain shown, from its start.",
  "data": [
    {"protein": "B1", "values": [
      {"measurement": "cleavage of HeLa total RNA by RNase A (0.7 µg/ml), agarose gel, Fv antibody at 10 µM", "setting": "[1]", "result": "it was observed that the cleavage reaction of RNase A was completely inhibited"},
      {"measurement": "stated: RNase A removed from the solution by Fv-1-beads (RNA cleavage read on an agarose gel)", "setting": "[1]", "result": "After Fv-Bead treatment: all four lanes (+ to ++++, + : 250 ng Fv-1-bead, RNase A 10 ng) keep faint RNA in the dashed box at about 1000-1500 bp like lane 0, marked 'RNA cleavage inhibition'. Before treatment (no bead) the four RNase A lanes show only a smear near 250 bp."},
      {"measurement": "cleavage of HeLa total RNA by RNase A (0.7 µg/ml), agarose gel, Fv antibody at 10 µM", "setting": "[2]", "result": "it was observed that the cleavage reaction of RNase A was completely inhibited"},
      {"measurement": "cleavage of HeLa total RNA by RNase A (0.7 µg/ml), agarose gel, Fv antibody at 10 µM", "setting": "[3]", "result": "it was observed that the cleavage reaction of RNase A was completely inhibited"},
      {"measurement": "stated: RNase A removed from the solution by Fv-2-beads (RNA cleavage read on an agarose gel)", "setting": "[3]", "result": "After Fv-Bead treatment: all four lanes (+ to ++++, + : 250 ng Fv-2-bead, RNase A 10 ng) keep both RNA bands (in the dashed box at about 1000-1500 bp and near 600 bp) like lane 0, marked 'RNA cleavage inhibition'. Before treatment (no bead) the four RNase A lanes have no band in the box."}
    ]}
  ]
}
